# Read-outs that look alike come from different tables or passages of the source. Residues, ends and D or L forms follow the SMILES beside them.
# T1: PepTSo2 (Shewanella oneidensis, UniProt Q8EHE6)
# T1 sequence (Q8EHE6 1-516): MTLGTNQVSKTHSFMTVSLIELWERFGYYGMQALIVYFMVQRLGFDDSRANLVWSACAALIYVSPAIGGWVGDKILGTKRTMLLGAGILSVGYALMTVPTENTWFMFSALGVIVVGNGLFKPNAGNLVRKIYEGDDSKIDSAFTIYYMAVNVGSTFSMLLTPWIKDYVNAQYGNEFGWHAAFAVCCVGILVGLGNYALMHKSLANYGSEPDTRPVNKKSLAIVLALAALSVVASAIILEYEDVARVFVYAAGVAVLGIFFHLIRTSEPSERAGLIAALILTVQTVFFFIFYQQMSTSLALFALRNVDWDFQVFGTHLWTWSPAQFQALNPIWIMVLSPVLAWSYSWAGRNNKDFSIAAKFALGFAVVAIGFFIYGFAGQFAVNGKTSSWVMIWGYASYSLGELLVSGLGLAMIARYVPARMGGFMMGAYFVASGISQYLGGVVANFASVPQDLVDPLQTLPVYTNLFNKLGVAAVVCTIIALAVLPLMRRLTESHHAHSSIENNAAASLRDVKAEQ
# T2: SapA/POPS empty nanoparticles (Homo sapiens, UniProt P07602)
# T2 construct: saposin A (residues 60 to 140); made in house; host or cells: E. coli Rosetta gami-2 (DE3)
# T2 sequence (P07602 60-140): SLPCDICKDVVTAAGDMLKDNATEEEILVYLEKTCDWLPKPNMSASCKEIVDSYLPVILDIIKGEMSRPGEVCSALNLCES
# What was measured:
# [1] = target: T1, PepTSo2; assay: MST di-/tripeptide binding in solution to PepTSo2; conditions: 20 °C
# Excerpt: (§1) The samples were loaded in standard glass capillaries. […] Empty SapNPs were used as control measurements.
# [2] = target: T2, SapA/POPS empty nanoparticles; assay: MST control for unspecific peptide binding to empty SapA/POPS nanoparticles
# Excerpt: as §1
# [3] = target: PepTSt; conditions: MST, 20 °C
# Description: PepTSt and PepTSo2 di and tripeptide binding in solution was measured by MST with the Monolith NT.LabelFree (NanoTemper technologies). The proteins were kept at a constant concentration of ∼125 nM and were combined with a series of 16 different peptide concentrations. For DDM- and SapNP-solubilized proteins, the ligands were diluted in DDM buffer (20 mM Tris pH 7.5, 150 mM NaCl, 5 % glycerol, and 0.03 % DDM) and in 1 × PBS, respectively. The thermophoretic movement of the proteins, alone and in complex with different peptides, was monitored and quantified using time-dependent intrinsic tryptophan fluorescence. The samples were loaded in standard glass capillaries. Data were acquired at 20 °C, the LED power was set to 20 %, and the MST power to 20 % and 40 %. The dissociation constant (KD) values were derived from the nonlinear fitting of the normalized fluorescence signal at different ligand concentrations using the NT analysis software. Empty SapNPs were used as control measurements.
# [4] = target: peptide transporter PepTSt from Streptococcus thermophilus (Streptococcus thermophilus) (UniProt Q5M4H8); assay: MST; label-free (intrinsic tryptophan fluorescence), DDM-solubilised transporter at ~125 nM, 16 peptide concentrations, 20 mM Tris pH 7.5, 150 mM NaCl, 5 % glycerol, 0.03 % DDM, 20 °C
# [5] = target: peptide transporter PepTSt from Streptococcus thermophilus (Streptococcus thermophilus) (UniProt Q5M4H8); assay: MST; label-free, transporter reconstituted in SapA/BL (brain total lipid extract) nanoparticles at ~125 nM, 16 peptide concentrations, 1x PBS, 20 °C
# [6] = target: peptide transporter PepTSt from Streptococcus thermophilus (Streptococcus thermophilus) (UniProt Q5M4H8); assay: MST; label-free, transporter reconstituted in SapA/POPS nanoparticles at ~125 nM, 16 peptide concentrations, 1x PBS, 20 °C
# [7] = target: small-conductance mechanosensitive channel T2 from Thermoplasma volcanium (Thermoplasma volcanium); assay: SEC-MALS; triple-detection SEC conjugate analysis (UV, refractive index, multi-angle light scattering); 60 uL T2 at 5 mg/mL on SD200 10/300 in 20 mM Tris pH 7.5, 150 mM NaCl, 5 % glycerol, 0.03 % DDM
# [8] = design: method as in Frauenfeld et al., 2016; conditions: ref Frauenfeld et al., 2016, cited from earlier work
# [9] = Protein thermal unfolding by dye-free nanoDSF; type: physicochemical; conditions: purified protein alone, 20 to 95 °C
# Description: The stability of the different DDM-solubilized or SapNP-reconstituted proteins was followed using a nanoDSF (Prometheus NT.48 form NanoTemper Technologies, GmbH). The dye-free proteins were excited at 280 nm and their intrinsic fluorescence at 350 and 330 nm were measured as a function of temperature to monitor the fluorescence changes upon heat unfolding. 10 μL of protein solution at a concentration of 0.5 mg/mL were loaded in a glass capillary, and the unfolding was measured in duplicates at a heating rate of 1 °C/min between 20 and 95 °C. The first derivative of the unfolding curves (350/330 nm ratio) was used to determine the transition midpoint (Tm).
molecule,measurement,setting,value
C[C@H](N)C(=O)N[C@@H](Cc1ccccc1)C(=O)N[C@@H](C)C(=O)O [Ala-Phe-Ala] (H-Ala-Phe-Ala-OH; N-terminus and C-terminus assumed),Kd,[1]; PepTSo2 in DDM,3.4 ± 1.3 mM
same,Kd,[1]; PepTSo2 reconstituted in SapA/BL,5 ± 3 mM
CC(C)C[C@H](N)C(=O)N[C@@H](C)C(=O)O [Leu-Ala] (H-Leu-Ala-OH; N-terminus and C-terminus assumed),unspecific peptide binding,[2],no unspecific peptide binding
same,Kd,[3]; PepTSt in DDM,16.6 ± 3.6 mM
same,Kd,[3]; PepTSt in SapA/BL,16.4 ± 3.6 mM
same,Kd,[3]; PepTSt in SapA/POPS,5.49 ± 1 mM
dipeptide Leu-Ala,Kd,[4],16.6 mM
same,Kd,[5],16.4 mM
same,Kd,[6],5.49 mM
small-conductance mechanosensitive channel T2 from Thermoplasma volcanium (natural protein),stoichiometry N,[7],7
PepTSo2: peptide transporter from Shewanella oneidensis (protein) MTLGTNQVSKTHSFMTVSLIELWERFGYYGMQALIVYFMVQRLGFDDSRANLVWSACAALIYVSPAIGGWVGDKILGTKRTMLLGAGILSVGYALMTVPTENTWFMFSALGVIVVGNGLFKPNAGNLVRKIYEGDDSKIDSAFTIYYMAVNVGSTFSMLLTPWIKDYVNAQYGNEFGWHAAFAVCCVGILVGLGNYALMHKSLANYGSEPDTRPVNKKSLAIVLALAALSVVASAIILEYEDVARVFVYAAGVAVLGIFFHLIRTSEPSERAGLIAALILTVQTVFFFIFYQQMSTSLALFALRNVDWDFQVFGTHLWTWSPAQFQALNPIWIMVLSPVLAWSYSWAGRNNKDFSIAAKFALGFAVVAIGFFIYGFAGQFAVNGKTSSWVMIWGYASYSLGELLVSGLGLAMIARYVPARMGGFMMGAYFVASGISQYLGGVVANFASVPQDLVDPLQTLPVYTNLFNKLGVAAVVCTIIALAVLPLMRRLTESHHAHSSIENNAAASLRDVKAEQ,Tm,[8]; encapsulated in SapA/BL nanoparticles,72 °C
same,Tm,[8]; in the detergent nonyl-β-D-maltopyranoside,43 °C
"saposin A: human saposin A, Prosaposin residues 60 to 140, recombinant (protein, left off: His6, N-terminal, cleaved, human saposin A, Prosaposin residues 60 to 140, recombinant) SLPCDICKDVVTAAGDMLKDNATEEEILVYLEKTCDWLPKPNMSASCKEIVDSYLPVILDIIKGEMSRPGEVCSALNLCES",unfolding transition,[9],does not show an unfolding transition

# — article PMC5807053, “Saposin Lipid Nanoparticles: A Highly Versatile and Modular Tool for Membrane Protein Research” (Structure(London, England:1993), 2018)
